According to patent publication US20220033501A1 (SHANGHAI PHARMAEXPLORER, published 2022):

T1: human TIM-3 on CHOK1 stable cell line (CHOK1-hTIM-3) (human, UniProt Q8TDQ0 22-301)
T1 sequence: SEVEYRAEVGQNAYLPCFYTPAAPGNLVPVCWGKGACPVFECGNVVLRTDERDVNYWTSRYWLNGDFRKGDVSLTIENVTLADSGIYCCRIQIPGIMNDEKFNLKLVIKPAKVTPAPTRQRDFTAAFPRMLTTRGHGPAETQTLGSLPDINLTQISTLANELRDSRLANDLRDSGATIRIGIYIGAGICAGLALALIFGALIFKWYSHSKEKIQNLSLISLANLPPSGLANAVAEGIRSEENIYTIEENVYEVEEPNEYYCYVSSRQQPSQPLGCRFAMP

T2: monkey TIM-3 extracellular domain protein with hFc tag (cTIM-3-hFc) (monkey)
T2 construct: not shown: human IgG Fc fragment (hFc) of the pCpC vector
T2 chain: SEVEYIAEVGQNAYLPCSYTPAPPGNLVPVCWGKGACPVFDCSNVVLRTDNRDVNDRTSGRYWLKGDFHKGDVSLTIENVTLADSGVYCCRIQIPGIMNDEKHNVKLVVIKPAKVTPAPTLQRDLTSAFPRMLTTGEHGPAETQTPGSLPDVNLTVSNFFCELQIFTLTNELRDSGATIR

T3: human TIM-3 extracellular domain protein with hFc tag (hTIM-3-hFc) (human, UniProt Q8TDQ0 22-200)
T3 construct: not shown: human IgG Fc fragment (hFc) of the pCpC vector
T3 sequence: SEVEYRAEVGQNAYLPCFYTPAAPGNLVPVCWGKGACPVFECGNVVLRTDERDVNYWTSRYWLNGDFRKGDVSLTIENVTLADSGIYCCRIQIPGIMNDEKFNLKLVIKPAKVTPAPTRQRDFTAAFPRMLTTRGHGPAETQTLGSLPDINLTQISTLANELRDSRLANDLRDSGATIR

T4: murine TIM-3 protein with hFc tag (mTIM-3-hFc protein) (mouse; human, UniProt Q8VIM0 29-191)
T4 construct: Made in HEK293 cells; also called mouse TIM-3 extracellular domain protein; not shown: human IgG Fc fragment (hFc) of the pCpC vector
T4 chain: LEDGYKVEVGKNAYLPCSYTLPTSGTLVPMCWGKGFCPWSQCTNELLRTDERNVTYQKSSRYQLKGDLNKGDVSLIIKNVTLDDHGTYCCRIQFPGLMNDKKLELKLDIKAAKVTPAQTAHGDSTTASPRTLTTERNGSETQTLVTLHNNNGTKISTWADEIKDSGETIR

T5: human TIM-3 protein with hFc tag (hTIM-3-hFc protein) (human, UniProt Q8TDQ0 22-200)
T5 construct: also called immunogen 1; human TIM-3 extracellular domain protein; not shown: human IgG Fc fragment (hFc) of the pCpC vector
T5 sequence: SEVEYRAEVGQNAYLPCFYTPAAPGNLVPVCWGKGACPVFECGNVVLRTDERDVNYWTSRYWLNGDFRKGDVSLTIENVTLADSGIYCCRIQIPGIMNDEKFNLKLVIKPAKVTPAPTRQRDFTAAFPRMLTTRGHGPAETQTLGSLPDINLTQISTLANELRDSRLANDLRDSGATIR

T6: monkey TIM-3 protein with hFc tag (cTIM-3-hFc protein) (monkey; human)
T6 construct: Made in HEK293 cells; also called monkey TIM-3 extracellular domain protein; not shown: human IgG Fc fragment (hFc) of the pCpC vector
T6 chain: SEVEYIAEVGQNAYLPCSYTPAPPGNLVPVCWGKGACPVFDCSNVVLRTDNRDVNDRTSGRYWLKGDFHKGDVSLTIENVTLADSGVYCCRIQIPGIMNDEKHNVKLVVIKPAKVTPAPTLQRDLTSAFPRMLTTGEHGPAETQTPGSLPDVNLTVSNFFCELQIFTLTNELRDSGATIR


Tests used:
[1] = molecular target: T1, human TIM-3 on CHOK1 stable cell line …; test: FACS, CHOK1-hTIM-3 cells, 8 nM antibody
[2] = molecular target: T1, human TIM-3 on CHOK1 stable cell line …; test: FACS, CHOK1-hTIM-3 cells, 40 nM antibody
[3] = molecular target: T2, monkey TIM-3 extracellular domain …; test: ELISA, coated monkey TIM-3 ECD protein, 0.0667 nM antibody
[4] = molecular target: T3, human TIM-3 extracellular domain …; test: ELISA, coated human TIM-3 ECD protein, 0.0667 nM antibody
[5] = molecular target: T4, murine TIM-3 protein with hFc tag …; test: ELISA, coated mTIM-3-hFc; antibody 0.0007 nM
Excerpt: (§1) The amino acid sequence 22-200 of the extracellular domain of the human TIM-3 protein described in the step of Example 1 (as shown in SEQ ID NO. 71 in the sequence listing) was cloned into a pCpC vector having a human IgG Fc fragment (hFc), and transfected into HEK293 cells. The cell culture medium was collected, and purified to obtain the human TIM-3 protein with hFc tag (herein referred to as hTIM-3-hFc protein). The amino acid sequence 22-201 of the extracellular domain of the monkey TIM-3 protein (as shown in SEQ ID NO. 72 in the sequence listing) was cloned into a pCpC vector having a human IgG Fc fragment (hFc), and transfected into HEK293 cells. The cell culture medium was collected, and purified to obtain the monkey TIM-3 protein with hFc tag (herein referred to as cTIM-3-hFc protein). […] The cell culture medium was collected, and purified to obtain the murine TIM-3 protein with hFc tag (herein referred to as mTIM-3-hFc protein). Purified human, monkey, and mouse TIM-3 extracellular domain proteins (hTIM-3-hFc, cTIM-3-hFc, and mTIM-3-hFc) were diluted with PBS to a final concentration of 1.0 μg/ml and then added to a 96-well ELISA plate with 100 μl per well. The plate was sealed with plastic film and incubated overnight at 4° C. The plate was washed 4 times with the plate washing solution (PBS+0.01% Tween20) on the next day, and added with the blocking solution (PBS+0.01% Tween20+1% BSA) and sealed at room temperature for 1-2 hours. The blocking solution was poured out. 50-100 μl of the antibody sample to be tested was added to each well. The plate was incubated at 37° C. for 1-2 hours, and washed 2-3 times with plate washing solution (PBS+0. 01% Tween20). HRP (horseradish peroxidase) labeled secondary antibody was added. The plate was incubated at 37° C. for 1-2 hours, and washed 2-3 times with plate washing solution (PBS+0. 01% Tween20). […] of TMB substrate was added to each well. After incubated at room temperature for 15-30 minutes, the plate was added with […] stop solution (1.0N HCl) to each well. An ELISA plate reader (TiterMax 384plus, Molecular Device) was used to read the A450 nm value.

[6] = molecular target: T5, human TIM-3 protein with hFc tag …; test: ELISA, coated hTIM-3-hFc; antibody 0.6667 nM
Excerpt: as §1

[7] = molecular target: T6, monkey TIM-3 protein with hFc tag …; test: ELISA, coated cTIM-3-hFc; antibody 0.0001 nM
Excerpt: as §1

[8] = molecular target: T6, monkey TIM-3 protein with hFc tag …; test: ELISA, coated cTIM-3-hFc; antibody 0.0067 nM
Excerpt: as §1

[9] = molecular target: T5, human TIM-3 protein with hFc tag …; test: ELISA, coated hTIM-3-hFc; antibody 0 nM (blank)
Excerpt: as §1

[10] = molecular target: T5, human TIM-3 protein with hFc tag …; test: ELISA, coated hTIM-3-hFc; antibody 0.0067 nM
Excerpt: as §1

Binder | Mean fluorescence intensity [1] | Mean fluorescence intensity [2] | OD450 [3] | OD450 [4] | OD450 [5] | OD450 [6] | OD450 [7] | OD450 [8] | OD450 [9] | OD450 [10]
7A4F10 (TIM-3 antibody purified from hybridoma, chimeric antibody of Example 2) (antibody, V domains shown, From hybridoma of Harbour H2L2 transgenic mice: human variable regions, rat constant regions) VH: EVQLLESGGGLVQPGGSLRLSCAASGFTFRTHLISWVRQAPGKGLEWVAAITGSGGSTYYADSVKGRFIISRDNSKNTLFLQMNSLRAEDTAVYYCAKDGGSGSYDDFWGQGTLVTVSS VL: ETVLTQSPVTLSLSPGERATLSCRASQSVGSYLAWYQQKPGQAPRLLIYDASNRATGIPARFSGSGSGTDFTLTISSLEPEDFAVYYCQQRSNWPPTFGQGTKVEIK |  |  |  |  | 0.64 | 0.86 | 0.54 | 0.57 | 0.11 | 0.13
34B6D8 (TIM-3 antibody purified from hybridoma, chimeric antibody of Example 2) (antibody, V domains shown, From hybridoma of Harbour H2L2 transgenic mice: human variable regions, rat constant regions) VH: EVQLVESGGGLVQPGGSLRLSCAASGFTFSTYWMTWVRQAPGKRLEWVANIKQGGGDKYYVDSVKGRFTISTDNAKNSLYLQMNSLRAEDTAVYYCARGSNWFDPWGQGTLVTVSS VL: EIVMTQSPATLSMSPGERATLSCRASQSVYDNLAWYQQKPGQAPRLLIYGASTRATGIPARFSGSGSGTEFTLTISSLQSEDFALYYCQQYTHWPITFGQGTRLEIK |  |  |  |  | 0.65 | 3.41 | 0.57 | 0.78 | 0.12 | 0.33
57F4E5 fully human TIM-3 antibody (human IgG4, kappa) (antibody, V domains shown) VH: EVQLVESGGGLVQPGGSLRLSCAASGFTFSSYWMSWVRQAPGKGLEWVANIKQDGSEKYYVDSVKGRFTISRDSAKNSLYLQMNSLRAEDTAMYFCARDSNFFDYWGQGTLVTVSS VL: ETVMTQSPATLSVSPGERATLSCRASQSVSSNLAWYQRKPGQAPRLLIYFSSTRATGIPARFSGSGSGTEFTLTISSLQSEDFAVYYCQQYNNWPLTFGGGTKVEIK | 154 | 147 | 1.34 | 1.22 |  |  |  |  |  | 
39E5H1 (TIM-3 antibody purified from hybridoma, chimeric antibody of Example 2) (antibody, V domains shown, From hybridoma of Harbour H2L2 transgenic mice: human variable regions, rat constant regions) VH: EVQLVESGGGLVQPGGSLRLSCAASGFTFSSYWMSWVRQAPGKGLEWVANIKRGGSERYYVDSVKGRFTISGDNAKNSVYLQMNSLRAEDTAVYYCARGSNWFDPWGQGTLVTVSS VL: ETVMTQSPAILSVSPGERATLSCRASQSVYSNLAWYQQKLGQAPRLLIYDASTRATGIPARFSGSGSGTEFTLTISSLQSEDFAVYYCQQYNNWPITFGQGTRLEIK |  |  |  |  | 0.63 | 3.41 | 0.57 | 0.85 | 0.12 | 0.42
134H3G6 (TIM-3 antibody purified from hybridoma, chimeric antibody of Example 2) (antibody, V domains shown, From hybridoma of Harbour H2L2 transgenic mice: human variable regions, rat constant regions) VH: EVQLVESGGGLVQPGGSLRLSCAASGFTFSNSWMTWVRQAPGKGLEWVANIKQAGTEKYYVDSVKGRFTISRDNAKNSLYLQMNSLRAEDTAVYYCNSGSNYFDYWGQGTLVTVSS VL: EIVMTQSPATLSVSPGERATLSCRARQNFYSNLAWYQQKPGQAPRLLIYGASTRATGIPARFSGSGSGTEFTLTISSLQSEDFAVYYCQQYNNWPLTFGGGTKVEIK |  |  |  |  | 0.62 | 0.69 | 0.54 | 0.56 | 0.12 | 0.13
57F4E5 (TIM-3 antibody purified from hybridoma, chimeric antibody of Example 2) (antibody, V domains shown, From hybridoma of Harbour H2L2 transgenic mice: human variable regions, rat constant regions) VH: EVQLVESGGGLVQPGGSLRLSCAASGFTFSSYWMSWVRQAPGKGLEWVANIKQDGSEKYYVDSVKGRFTISRDSAKNSLYLQMNSLRAEDTAMYFCARDSNFFDYWGQGTLVTVSS VL: ETVMTQSPATLSVSPGERATLSCRASQSVSSNLAWYQRKPGQAPRLLIYFSSTRATGIPARFSGSGSGTEFTLTISSLQSEDFAVYYCQQYNNWPLTFGGGTKVEIK |  |  |  |  | 0.67 | 3.31 | 0.58 | 1.13 | 0.12 | 0.63
18D2H2 (TIM-3 antibody purified from hybridoma, chimeric antibody of Example 2) (antibody, V domains shown, From hybridoma of Harbour H2L2 transgenic mice: human variable regions, rat constant regions) VH: EVQLVESGGDLVQPGGSLRLSCAASGFTFSTYWMTWVRQAPGRGLEWVANIKQDGSAKYYVDSVKGRFTLSRDDAKNSLYLQMNSLRAEDTAVYYCARGSNWFDYWGQGTLVTVSS VL: ETVMTQSPATLSVSPGERATLSCRANQNVYSNLAWYQQKPGQAPRLLIYDASTRATGFPARFSGSGSGTEFTLTISSLQSEDFAVYYCQQYNNWPLTFGGGTKVEIK |  |  |  |  | 0.64 | 1.33 | 0.53 | 0.62 | 0.11 | 0.16

Second part, the binder after the results:

Mean fluorescence intensity [1] | Mean fluorescence intensity [2] | OD450 [3] | OD450 [4] | OD450 [5] | OD450 [6] | OD450 [7] | OD450 [8] | OD450 [9] | OD450 [10] | Binder
298 | 283 | 1.37 | 1.29 |  |  |  |  |  |  | 215A8F2 fully human TIM-3 antibody (human IgG4, kappa) (antibody, V domains shown) VH: QVQLQQWGAGLLKPSETLSLTCTVYGGSFSGYYWNWIRQPPGKGLEWLGEINHSGSTNYNPSLKRRVTISVDTSKNQFSLKLSSVTAADTAVYYCARVYYYGPFDFWGQGTLVTVSS VL: not shown
 |  |  |  | 0.67 | 3.06 | 0.52 | 0.7 | 0.11 | 0.28 | 215A8F2 (TIM-3 antibody purified from hybridoma, chimeric antibody of Example 2) (antibody, V domains shown, From hybridoma of Harbour H2L2 transgenic mice: human variable regions, rat constant regions) VH: QVQLQQWGAGLLKPSETLSLTCTVYGGSFSGYYWNWIRQPPGKGLEWLGEINHSGSTNYNPSLKRRVTISVDTSKNQFSLKLSSVTAADTAVYYCARVYYYGPFDFWGQGTLVTVSS VL: not shown
229 | 218 | 1.3 | 1.28 |  |  |  |  |  |  | 134H3G6 fully human TIM-3 antibody (human IgG4, kappa) (antibody, V domains shown) VH: EVQLVESGGGLVQPGGSLRLSCAASGFTFSNSWMTWVRQAPGKGLEWVANIKQAGTEKYYVDSVKGRFTISRDNAKNSLYLQMNSLRAEDTAVYYCNSGSNYFDYWGQGTLVTVSS VL: EIVMTQSPATLSVSPGERATLSCRARQNFYSNLAWYQQKPGQAPRLLIYGASTRATGIPARFSGSGSGTEFTLTISSLQSEDFAVYYCQQYNNWPLTFGGGTKVEIK
